Paper PMC3416868, “The Fission Yeast GATA Factor, Gaf1, Modulates Sexual Development via Direct Down-Regulation of ste11+ Expression in Response to Nitrogen Starvation”

What was measured:
[1] = molecular target: T1, GST-Gaf1 (Schizosaccharomyces pombe (972?)) (UniProt Q10280); experiment: competition; settings: 10 mM Tris pH 7.5, 2 mM MgCl2, 50 mM NaCl, 1 mM DTT, 5% glycerol, 2 ug poly(dI-dC) in 20 ul, room temperature, 20 min; 6% native PAGE
T1 sequence: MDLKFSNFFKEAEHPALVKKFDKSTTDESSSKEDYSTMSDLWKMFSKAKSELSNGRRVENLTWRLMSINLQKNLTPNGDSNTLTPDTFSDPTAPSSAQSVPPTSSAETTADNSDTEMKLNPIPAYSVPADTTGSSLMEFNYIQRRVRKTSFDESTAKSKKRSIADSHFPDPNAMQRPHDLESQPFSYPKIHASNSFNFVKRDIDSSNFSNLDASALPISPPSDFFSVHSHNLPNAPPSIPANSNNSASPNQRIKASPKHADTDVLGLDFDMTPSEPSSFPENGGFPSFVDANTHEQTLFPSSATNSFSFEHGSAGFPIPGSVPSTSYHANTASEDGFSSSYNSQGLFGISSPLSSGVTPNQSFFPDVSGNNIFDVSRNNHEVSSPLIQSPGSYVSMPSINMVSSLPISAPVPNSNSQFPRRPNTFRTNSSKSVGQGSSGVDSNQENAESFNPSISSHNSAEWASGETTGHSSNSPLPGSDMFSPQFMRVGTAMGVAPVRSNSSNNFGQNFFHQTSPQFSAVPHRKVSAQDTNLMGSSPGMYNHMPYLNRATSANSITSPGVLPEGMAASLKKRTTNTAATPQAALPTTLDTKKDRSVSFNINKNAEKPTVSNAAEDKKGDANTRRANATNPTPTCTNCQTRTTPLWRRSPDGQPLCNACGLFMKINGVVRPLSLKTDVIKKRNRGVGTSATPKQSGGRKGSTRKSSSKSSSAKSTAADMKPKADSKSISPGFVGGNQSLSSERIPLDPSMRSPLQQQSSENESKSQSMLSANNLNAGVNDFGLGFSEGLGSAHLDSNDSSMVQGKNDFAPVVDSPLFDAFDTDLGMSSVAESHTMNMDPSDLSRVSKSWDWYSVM

GST-Gaf1 [2] = molecular target: T2, GST-Gaf1 (Schizosaccharomyces pombe, UniProt Q10280 1-855); experiment: competition; cold PW, 100-fold, against labeled PA; 10 mM Tris pH 7.5, 2 mM MgCl2, 50 mM NaCl, 1 mM DTT, 5% glycerol, 2 ug poly(dI-dC) in 20 ul, room temperature, 20 min; 6% native PAGE; settings: protein: recombinant; tags: N-terminal GST (pGEX4T3); label: 32P 5'-end (probe); blunt
T2 sequence: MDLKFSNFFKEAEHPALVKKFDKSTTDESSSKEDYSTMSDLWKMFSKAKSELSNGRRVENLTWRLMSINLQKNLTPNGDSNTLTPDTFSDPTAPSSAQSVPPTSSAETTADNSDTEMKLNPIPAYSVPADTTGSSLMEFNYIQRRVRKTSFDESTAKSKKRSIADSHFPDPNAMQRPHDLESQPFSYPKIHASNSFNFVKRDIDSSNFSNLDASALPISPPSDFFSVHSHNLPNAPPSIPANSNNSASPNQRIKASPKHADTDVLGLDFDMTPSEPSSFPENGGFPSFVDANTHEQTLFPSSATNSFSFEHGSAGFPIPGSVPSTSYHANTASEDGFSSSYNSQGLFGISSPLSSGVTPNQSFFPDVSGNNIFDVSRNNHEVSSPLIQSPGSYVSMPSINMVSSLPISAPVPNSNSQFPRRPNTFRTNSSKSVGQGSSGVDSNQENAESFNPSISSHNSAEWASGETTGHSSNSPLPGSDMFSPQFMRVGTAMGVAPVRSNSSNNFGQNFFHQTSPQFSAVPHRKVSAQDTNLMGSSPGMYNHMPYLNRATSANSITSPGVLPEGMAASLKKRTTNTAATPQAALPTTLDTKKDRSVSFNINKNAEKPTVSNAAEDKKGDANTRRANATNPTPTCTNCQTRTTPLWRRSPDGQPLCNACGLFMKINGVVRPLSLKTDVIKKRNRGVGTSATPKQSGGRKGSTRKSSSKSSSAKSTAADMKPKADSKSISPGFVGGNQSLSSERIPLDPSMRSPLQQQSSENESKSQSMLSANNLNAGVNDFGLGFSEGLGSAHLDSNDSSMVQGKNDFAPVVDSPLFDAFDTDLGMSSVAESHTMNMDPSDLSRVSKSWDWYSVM

GST-Gaf1 [3] = molecular target: T2, GST-Gaf1; experiment: competition; cold PM, 100-fold, against labeled PA; 10 mM Tris pH 7.5, 2 mM MgCl2, 50 mM NaCl, 1 mM DTT, 5% glycerol, 2 ug poly(dI-dC) in 20 ul, room temperature, 20 min; 6% native PAGE; settings: protein: recombinant; tags: N-terminal GST (pGEX4T3); label: 32P 5'-end (probe)

“GGATATCCTTTTAATATATGCTAAATGAATAGATTCTCACTATGTAAGTCACCAGGTATGTATGTATATATATATATATATACATACGCATTGGCAACCAACTAGTAAGAGTATAGAGCGAGGCGTAATACGCGATGTTACTGACAATGAAAATCAAACAAAGAAATTCAACTTTTTTAAGTCTAGCCAAAATGTGTATGAGGGGAAGGGACAAAATTCACAGGGGTTAAAGTAACATATG (double strand) [PB]” was tested, and the binding [1] was “no binding”.

B1: PW (dsDNA)
DNA 1: CATTTTGCCTTGCGCTATCTCCCTCAACGAAAAG
DNA 2: CTTTTCGTTGAGGGAGATAGCGCAAGGCAAAATG
B1: binds (GST-Gaf1 [2]).

B2: PM (dsDNA)
DNA 1: CATTTTGCCTTGCGCATTGTCCCTCAACGAAAAG
DNA 2: CTTTTCGTTGAGGGACAATGCGCAAGGCAAAATG
B2: no binding (GST-Gaf1 [3]).
